Results published in US20240141045A1 (PRECIGEN, published 2024).

B1: Anti-PD1 (VL5-VH6).IgG4-Linker 2-TGFbRII (antibody)
heavy: QVQLVESGGGVVQPGRSLRLDCKASGITFSNSGMHWVRQAPGKGLEWVAVIWYDGSKRYYADSVKGRFTISRDNSKNTLFLQMNSLRAEDTAVYYCATNDDYWGQGTLVTVSSASTKGPSVFPLAPCSRSTSESTAALGCLVKDYFPEPVTVSWNSGALTSGVHTFPAVLQSSGLYSLSSVVTVPSSSLGTKTYTCNVDHKPSNTKVDKRVESKYGPPCPSCPAPEFLGGPSVFLFPPKPKDTLMISRTPEVTCVVVDVSQEDPEVQFNWYVDGVEVHNAKTKPREEQFNSTYRVVSVLTVLHQDWLNGKEYKCKVSNKGLPSSIEKTISKAKGQPREPQVYTLPPSQEEMTKNQVSLTCLVKGFYPSDIAVEWESNGQPENNYKTTPPVLDSDGSFFLYSRLTVDKSRWQEGNVFSCSVMHEALHNHYTQKSLSLSPGKGGGGSGGGSIPPHVQKSVNNDMIVTDNNGAVKFPQLCKFCDVRFSTCDNQKSCMSNCSITSICEKPQEVCVAVWRKNDENITLETVCHDPKLPYHDFILEDAASPKCIMKEKKKPGETFFMCSCSSDECNDNIIFSEEYNTSNPD
light: not shown
B2: Anti-PD1 (VL5-VH6).IgG4-Linker7-TGFbRII (antibody)
heavy: QVQLVESGGGVVQPGRSLRLDCKASGITFSNSGMHWVRQAPGKGLEWVAVIWYDGSKRYYADSVKGRFTISRDNSKNTLFLQMNSLRAEDTAVYYCATNDDYWGQGTLVTVSSASTKGPSVFPLAPCSRSTSESTAALGCLVKDYFPEPVTVSWNSGALTSGVHTFPAVLQSSGLYSLSSVVTVPSSSLGTKTYTCNVDHKPSNTKVDKRVESKYGPPCPSCPAPEFLGGPSVFLFPPKPKDTLMISRTPEVTCVVVDVSQEDPEVQFNWYVDGVEVHNAKTKPREEQFNSTYRVVSVLTVLHQDWLNGKEYKCKVSNKGLPSSIEKTISKAKGQPREPQVYTLPPSQEEMTKNQVSLTCLVKGFYPSDIAVEWESNGQPENNYKTTPPVLDSDGSFFLYSRLTVDKSRWQEGNVFSCSVMHEALHNHYTQKSLSLSPGKDPGSGSVPLGSGSNPGSIPPHVQKSVNNDMIVTDNNGAVKFPQLCKFCDVRFSTCDNQKSCMSNCSITSICEKPQEVCVAVWRKNDENITLETVCHDPKLPYHDFILEDAASPKCIMKEKKKPGETFFMCSCSSDECNDNIIFSEEYNTSNPD
light: not shown
B3: Anti-PD1 (VL5-VH6).IgG4-Linker8-TGFbRII (antibody)
heavy: QVQLVESGGGVVQPGRSLRLDCKASGITFSNSGMHWVRQAPGKGLEWVAVIWYDGSKRYYADSVKGRFTISRDNSKNTLFLQMNSLRAEDTAVYYCATNDDYWGQGTLVTVSSASTKGPSVFPLAPCSRSTSESTAALGCLVKDYFPEPVTVSWNSGALTSGVHTFPAVLQSSGLYSLSSVVTVPSSSLGTKTYTCNVDHKPSNTKVDKRVESKYGPPCPSCPAPEFLGGPSVFLFPPKPKDTLMISRTPEVTCVVVDVSQEDPEVQFNWYVDGVEVHNAKTKPREEQFNSTYRVVSVLTVLHQDWLNGKEYKCKVSNKGLPSSIEKTISKAKGQPREPQVYTLPPSQEEMTKNQVSLTCLVKGFYPSDIAVEWESNGQPENNYKTTPPVLDSDGSFFLYSRLTVDKSRWQEGNVFSCSVMHEALHNHYTQKSLSLSPGKDPGSGGSVPLGSGGSNPGSIPPHVQKSVNNDMIVTDNNGAVKFPQLCKFCDVRFSTCDNQKSCMSNCSITSICEKPQEVCVAVWRKNDENITLETVCHDPKLPYHDFILEDAASPKCIMKEKKKPGETFFMCSCSSDECNDNIIFSEEYNTSNPD
light: not shown
B4: Anti-PD1 (VL5-VH6).IgG4-Linker12-TGFbRII (antibody)
heavy: QVQLVESGGGVVQPGRSLRLDCKASGITFSNSGMHWVRQAPGKGLEWVAVIWYDGSKRYYADSVKGRFTISRDNSKNTLFLQMNSLRAEDTAVYYCATNDDYWGQGTLVTVSSASTKGPSVFPLAPCSRSTSESTAALGCLVKDYFPEPVTVSWNSGALTSGVHTFPAVLQSSGLYSLSSVVTVPSSSLGTKTYTCNVDHKPSNTKVDKRVESKYGPPCPSCPAPEFLGGPSVFLFPPKPKDTLMISRTPEVTCVVVDVSQEDPEVQFNWYVDGVEVHNAKTKPREEQFNSTYRVVSVLTVLHQDWLNGKEYKCKVSNKGLPSSIEKTISKAKGQPREPQVYTLPPSQEEMTKNQVSLTCLVKGFYPSDIAVEWESNGQPENNYKTTPPVLDSDGSFFLYSRLTVDKSRWQEGNVFSCSVMHEALHNHYTQKSLSLSPGKDPVLEREDKVTTSKNPGSIPPHVQKSVNNDMIVTDNNGAVKFPQLCKFCDVRFSTCDNQKSCMSNCSITSICEKPQEVCVAVWRKNDENITLETVCHDPKLPYHDFILEDAASPKCIMKEKKKPGETFFMCSCSSDECNDNIIFSEEYNTSNPD
light: not shown
B5: Anti-PD1 (VH7-VL6) IgG1-ADA2 (antibody)
heavy (part 1 of 2): QVQLVQSGVEVKKPGASVKVSCKASGYTFTNYYMYWVRQAPGQGLEWMGGINPSNGGTNFNEKFKNRVTLTTDSSTTTAYMELKSLQFDDTAVYYCARRDYRFDMGFDYWGQGTTVTVSS
heavy (part 2 of 2): GGGGSGGGGSSIDETRAHLLLKEKMMRLGGRLVLNTKEELANERLMTLKIAEMKEAMRTLIFPPSMHFFQAKHLIERSQVFNILRMMPKGAALHLHDIGIVTMDWLVRNVTYRPHCHICFTPRGIMQFRFAHPTPRPSEKCSKWILLEDYRKRVQNVTEFDDSLLRNFTLVTQHPEVIYTNQNVVWSKFETIFFTISGLIHYAPVFRDYVFRSMQEFYEDNVLYMEIRARLLPVYELSGEHHDEEWSVKTYQEVAQKFVETHPEFIGIKIIYSDHRSKDVAVIAESIRMAMGLRIKFPTVVAGFDLVGHEDTGHSLHDYKEALMIPAKDGVKLPYFFHAGETDWQGTSIDRNILDALMLNTTRIGHGFALSKHPAVRTYSWKKDIPIEVCPISNQVLKLVSDLRNHPVATLMATGHPMVISSDDPAMFGAKGLSYDFYEVFMGIGGMKADLRTLKQLAMNSIKYSTLLESEKNTFMEIWKKRWDKFIADVATK
light: EIVLTQSPATLSLSPGERATLSCRASKGVSTSGYSYLHWYQQKPGQAPRLLIYLASYLESGVPARFSGSGSGTDFTLTISSLEPEDFAVYYCQHSRDLPLTFGGGTKVEIK
notes: not shown: IgG1 heavy chain constant region; light chain constant region
B6: Anti-PD1 (VH7-VL6) scFv-ADA2 (scFv)
chain 1: B5 heavy (part 1 of 2)
chain 2: B5 light
chain 3: B5 heavy (part 2 of 2)
B7: Anti-PD1 (VH6-VL5) scFv-ADA2 (scFv)
chain 1: QVQLVESGGGVVQPGRSLRLDCKASGITFSNSGMHWVRQAPGKGLEWVAVIWYDGSKRYYADSVKGRFTISRDNSKNTLFLQMNSLRAEDTAVYYCATNDDYWGQGTLVTVSS
chain 2: EIVLTQSPATLSLSPGERATLSCRASQSVSSYLAWYQQKPGQAPRLLIYDASNRATGIPARFSGSGSGTDFTLTISSLEPEDFAVYYCQQSSNWPRTFGQGTKVEIK
chain 3: B5 heavy (part 2 of 2)
B8: Anti-PD1 (VH6-VL5) IgG4-ADA2 (antibody)
heavy (part 1 of 2): B7 chain 1
heavy (part 2 of 2): B5 heavy (part 2 of 2)
light: not shown
notes: not shown: IgG4 heavy chain constant region
B9: Anti-PD1 (VH7-VL6) IgG4-ADA2 (antibody)
heavy (part 1 of 2): B5 heavy (part 1 of 2)
heavy (part 2 of 2): B5 heavy (part 2 of 2)
light: EIVLTQSPATLSLSPGERATLSCRASKGVSTSGYSYLHWYQQKPGQAPRLLIYLASYLESGVPARFSGSGSGTDFTLTISSLEPEDFAVYYCQHSRDLPLTFGGGTKVEIKRTVAAPSVFIFPPSDEQLKSGTASVVCLLNNFYPREAKVQWKVDNALQSGNSQESVTEQDSKDSTYSLSSTLTLSKADYEKHKVYACEVTHQGLSSPVTKSFNRGEC
notes: as for B8
B10: Anti-PD1 (VL5-VH6).IgG4 (antibody, V domains shown)
VH: B7 chain 1
VL: B7 chain 2
B11: Anti-PD1(VH7-VL6) IgG4-TGFβRII (antibody)
heavy: QVQLVQSGVEVKKPGASVKVSCKASGYTFTNYYMYWVRQAPGQGLEWMGGINPSNGGTNFNEKFKNRVTLTTDSSTTTAYMELKSLQFDDTAVYYCARRDYRFDMGFDYWGQGTTVTVSSASTKGPSVFPLAPCSRSTSESTAALGCLVKDYFPEPVTVSWNSGALTSGVHTFPAVLQSSGLYSLSSVVTVPSSSLGTKTYTCNVDHKPSNTKVDKRVESKYGPPCPSCPAPEFLGGPSVFLFPPKPKDTLMISRTPEVTCVVVDVSQEDPEVQFNWYVDGVEVHNAKTKPREEQFNSTYRVVSVLTVLHQDWLNGKEYKCKVSNKGLPSSIEKTISKAKGQPREPQVYTLPPSQEEMTKNQVSLTCLVKGFYPSDIAVEWESNGQPENNYKTTPPVLDSDGSFFLYSRLTVDKSRWQEGNVFSCSVMHEALHNHYTQKSLSLSPGKGGGGSGGGGSIPPHVQKSVNNDMIVTDNNGAVKFPQLCKFCDVRFSTCDNQKSCMSNCSITSICEKPQEVCVAVWRKNDENITLETVCHDPKLPYHDFILEDAASPKCIMKEKKKPGETFFMCSCSSDECNDNIIFSEEYNTSNPD
light: B9 light
B12: Anti-PD1 (VL6-VH7).IgG4(S108P).TGFbRII (antibody)
heavy: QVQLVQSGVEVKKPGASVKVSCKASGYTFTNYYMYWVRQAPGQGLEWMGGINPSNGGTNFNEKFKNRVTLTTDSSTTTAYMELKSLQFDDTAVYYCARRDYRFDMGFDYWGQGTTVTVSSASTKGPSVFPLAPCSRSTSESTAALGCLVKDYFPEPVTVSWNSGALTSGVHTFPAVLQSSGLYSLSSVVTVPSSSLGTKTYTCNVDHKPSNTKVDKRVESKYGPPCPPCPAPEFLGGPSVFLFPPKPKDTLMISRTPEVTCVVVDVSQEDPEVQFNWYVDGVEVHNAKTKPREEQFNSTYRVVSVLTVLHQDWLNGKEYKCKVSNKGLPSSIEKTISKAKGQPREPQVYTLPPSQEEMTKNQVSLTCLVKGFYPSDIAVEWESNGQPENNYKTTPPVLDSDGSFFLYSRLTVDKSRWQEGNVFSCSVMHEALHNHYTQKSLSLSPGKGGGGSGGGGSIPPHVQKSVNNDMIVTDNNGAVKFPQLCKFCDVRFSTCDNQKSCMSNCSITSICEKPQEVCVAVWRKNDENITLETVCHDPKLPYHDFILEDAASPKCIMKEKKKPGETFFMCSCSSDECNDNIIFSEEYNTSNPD
light: B9 light

Biological target: T1, TGF-β1 (UniProt P01137 279-390)
Test: cell-based or functional assay

T1 sequence (P01137 279-390 limits assumed): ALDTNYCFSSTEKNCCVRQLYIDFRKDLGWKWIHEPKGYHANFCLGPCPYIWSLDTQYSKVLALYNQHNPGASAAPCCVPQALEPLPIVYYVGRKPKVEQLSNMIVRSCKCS

Row | IC50, TGF-β1 neutralization activity (HEK-Blue TGF-β reporter cells) | Binder
1 | 1.2 pM | B1
2 | 1.1 pM | B2
3 | 1.2 pM | B3
4 | 2.7 pM | B4

Biological target: T2, PD-1 Fc fusion protein (UniProt Q15116 25-167, limits assumed)
T2 construct: Antigen immobilised on the CM5 chip in all PD-1 SPR assays; also called PD-1 fused to human Fc region; PD-1-Fc antigen; not shown: human Fc region
Test: SPR (Biacore 3000), recombinant PD-1 Fc immobilised on CM5 chip, fusion protein injected
Description: Surface plasma resonance (SPR) analysis was performed using Biacore3000, CM5 chip, an amine-coupling kit, 10×HBS-P running buffer and Glycine for. […] Dissociation was allowed to proceed followed by regeneration of the chip surface.

T2 sequence (Q15116 25-167 limits assumed): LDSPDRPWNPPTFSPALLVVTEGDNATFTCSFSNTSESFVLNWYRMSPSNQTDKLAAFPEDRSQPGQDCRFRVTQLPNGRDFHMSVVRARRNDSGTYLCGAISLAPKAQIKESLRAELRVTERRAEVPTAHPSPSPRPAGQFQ

Row | Kd | Binder
5 | 0.509 pM | B5
6 | 130 pM | B6
7 | 3460 pM | B7
8 | 0.0616 pM | B8
9 | 0.0663 pM | B9

Biological target: T1, TGF-β1
Test: cell-based or functional assay
Remark: another data set of the same source

Row | IC50, inhibition of TGF-β1 induced reporter gene activity (HEK-Blue TGF-β cells, SEAP) | Binder
10 | 9 pM | B10
11 | 5.6 pM | B11
12 | 9.3 pM | B12
